System: Escherichia coli TOP10
Test: shrunken log2 fold change of peptide-encoding DNA abundance (4.5 h post-induction vs induction); higher = less antimicrobial activity (less host growth inhibition)
Conditions: time post-induction: 4.5 h; library: site-saturation at positions 5, 18, 19, 20
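Further: peptides expressed intracellularly from a pBAD plasmid library in pooled LB shake-flask culture, induced with 0.3% L-arabinose, DNA abundance read by NGS, three biological replicates, DESeq2 with apeglm shrinkage.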

RRIRLRPPRLPRPRPRPSFFPRP
shrunken log2 fold change: -0.207

RRIRQRPPRLPRPRPRPSHWPRP
shrunken log2 fold change: -0.153

RRIRFRPPRLPRPRPRPYHAPRP
shrunken log2 fold change: -0.0961

RRIRRRPPRLPRPRPRPEWWPRP
shrunken log2 fold change: -0.0131

RRIRERPPRLPRPRPRPKWDPRP
shrunken log2 fold change: 0.953

RRIRARPPRLPRPRPRPFLNPRP
shrunken log2 fold change: -0.248

RRIRDRPPRLPRPRPRPTMVPRP
shrunken log2 fold change: 0.028

RRIRARPPRLPRPRPRPPWEPRP
shrunken log2 fold change: 0.558

RRIRFRPPRLPRPRPRPIVHPRP
shrunken log2 fold change: -0.581

RRIRWRPPRLPRPRPRPIPQPRP
shrunken log2 fold change: 0.254

RRIRQRPPRLPRPRPRPFWPPRP
shrunken log2 fold change: 0.083

RRIRFRPPRLPRPRPRPSHHPRP
shrunken log2 fold change: -0.534

RRIRNRPPRLPRPRPRPGCLPRP
shrunken log2 fold change: -0.000466

RRIRIRPPRLPRPRPRPCRQPRP
shrunken log2 fold change: 0.112

RRIRVRPPRLPRPRPRPYMEPRP
shrunken log2 fold change: -0.16

RRIRFRPPRLPRPRPRPKYDPRP
shrunken log2 fold change: -0.606

RRIRFRPPRLPRPRPRPMVCPRP
shrunken log2 fold change: -0.0374

RRIRRRPPRLPRPRPRPHQCPRP
shrunken log2 fold change: -0.0941

RRIRRRPPRLPRPRPRPMVIPRP
shrunken log2 fold change: -0.189

RRIRTRPPRLPRPRPRPHNTPRP
shrunken log2 fold change: -0.346

RRIRPRPPRLPRPRPRPSTSPRP
shrunken log2 fold change: -0.0506

RRIRIRPPRLPRPRPRPNWCPRP
shrunken log2 fold change: -0.26

RRIRHRPPRLPRPRPRPPSKPRP
shrunken log2 fold change: -0.122

RRIRIRPPRLPRPRPRPFAIPRP
shrunken log2 fold change: -0.886

RRIRARPPRLPRPRPRPTMGPRP
shrunken log2 fold change: 0.469

RRIRRRPPRLPRPRPRPCPNPRP
shrunken log2 fold change: -0.207

RRIRVRPPRLPRPRPRPICYPRP
shrunken log2 fold change: 0.19

RRIRQRPPRLPRPRPRPHLPPRP
shrunken log2 fold change: 0.0272

RRIRYRPPRLPRPRPRPYDHPRP
shrunken log2 fold change: -0.474

RRIRCRPPRLPRPRPRPVELPRP
shrunken log2 fold change: 0.103

RRIRRRPPRLPRPRPRPRIAPRP
shrunken log2 fold change: 0.652

RRIRERPPRLPRPRPRPIICPRP
shrunken log2 fold change: -0.0147

RRIRNRPPRLPRPRPRPDPWPRP
shrunken log2 fold change: 0.106

RRIRTRPPRLPRPRPRPWEDPRP
shrunken log2 fold change: 0.0242

RRIRPRPPRLPRPRPRPNLQPRP
shrunken log2 fold change: 0.0751

RRIRMRPPRLPRPRPRPVEPPRP
shrunken log2 fold change: 0.207

RRIRTRPPRLPRPRPRPNMLPRP
shrunken log2 fold change: -0.45

RRIRQRPPRLPRPRPRPDKGPRP
shrunken log2 fold change: -0.285

RRIRIRPPRLPRPRPRPMLLPRP
shrunken log2 fold change: 0.0902

RRIRQRPPRLPRPRPRPNIKPRP
shrunken log2 fold change: -0.558

RRIRFRPPRLPRPRPRPWRIPRP
shrunken log2 fold change: -0.0447

RRIRNRPPRLPRPRPRPLVMPRP
shrunken log2 fold change: -0.126

RRIRGRPPRLPRPRPRPSPCPRP
shrunken log2 fold change: -0.0911

RRIRHRPPRLPRPRPRPKPHPRP
shrunken log2 fold change: 0.172

RRIRIRPPRLPRPRPRPMQYPRP
shrunken log2 fold change: -0.016

RRIRGRPPRLPRPRPRPTFVPRP
shrunken log2 fold change: 0.782

RRIRTRPPRLPRPRPRPVMTPRP
shrunken log2 fold change: -0.14

RRIRSRPPRLPRPRPRPIVWPRP
shrunken log2 fold change: -0.0774

RRIRARPPRLPRPRPRPTWEPRP
shrunken log2 fold change: 1.02

RRIRTRPPRLPRPRPRPYAEPRP
shrunken log2 fold change: -0.612

RRIRVRPPRLPRPRPRPNVMPRP
shrunken log2 fold change: -0.173

RRIRMRPPRLPRPRPRPNFPPRP
shrunken log2 fold change: -0.186

RRIRDRPPRLPRPRPRPEGLPRP
shrunken log2 fold change: 0.0425

RRIRHRPPRLPRPRPRPCDLPRP
shrunken log2 fold change: -0.502

RRIRVRPPRLPRPRPRPQEQPRP
shrunken log2 fold change: 0.0925

RRIRKRPPRLPRPRPRPLLLPRP
shrunken log2 fold change: -0.105

RRIRVRPPRLPRPRPRPKYDPRP
shrunken log2 fold change: -0.269

RRIRGRPPRLPRPRPRPRFEPRP
shrunken log2 fold change: 0.881

RRIRARPPRLPRPRPRPIIEPRP
shrunken log2 fold change: 0.00879

RRIRDRPPRLPRPRPRPNTMPRP
shrunken log2 fold change: -0.167

RRIRPRPPRLPRPRPRPEFKPRP
shrunken log2 fold change: 0.26

RRIRHRPPRLPRPRPRPFFSPRP
shrunken log2 fold change: -0.253

RRIRYRPPRLPRPRPRPCRTPRP
shrunken log2 fold change: -0.651

RRIRARPPRLPRPRPRPRQHPRP
shrunken log2 fold change: 0.278

RRIRARPPRLPRPRPRPIMFPRP
shrunken log2 fold change: -0.0901

RRIRWRPPRLPRPRPRPIDEPRP
shrunken log2 fold change: 0.0867

RRIRHRPPRLPRPRPRPTIPPRP
shrunken log2 fold change: -0.028

RRIRQRPPRLPRPRPRPKRVPRP
shrunken log2 fold change: -0.154

RRIRRRPPRLPRPRPRPGAMPRP
shrunken log2 fold change: 0.337

RRIRIRPPRLPRPRPRPDNHPRP
shrunken log2 fold change: -0.0565

RRIRCRPPRLPRPRPRPRSGPRP
shrunken log2 fold change: 0.694

RRIRGRPPRLPRPRPRPECNPRP
shrunken log2 fold change: 1.95

RRIRIRPPRLPRPRPRPCGCPRP
shrunken log2 fold change: -0.248

RRIRDRPPRLPRPRPRPMSLPRP
shrunken log2 fold change: -0.558

RRIRKRPPRLPRPRPRPHRPPRP
shrunken log2 fold change: 0.172

RRIRARPPRLPRPRPRPMFRPRP
shrunken log2 fold change: -0.217

RRIRKRPPRLPRPRPRPYRMPRP
shrunken log2 fold change: -0.329

RRIRQRPPRLPRPRPRPMMYPRP
shrunken log2 fold change: 0.0473

RRIRCRPPRLPRPRPRPVCLPRP
shrunken log2 fold change: -0.168

RRIRQRPPRLPRPRPRPNKNPRP
shrunken log2 fold change: -0.335

RRIRYRPPRLPRPRPRPICKPRP
shrunken log2 fold change: -0.193

RRIRARPPRLPRPRPRPGQQPRP
shrunken log2 fold change: 0.209

RRIRERPPRLPRPRPRPPENPRP
shrunken log2 fold change: 0.222

RRIRHRPPRLPRPRPRPYSHPRP
shrunken log2 fold change: -0.129

RRIRERPPRLPRPRPRPILCPRP
shrunken log2 fold change: -0.0244

RRIRPRPPRLPRPRPRPRACPRP
shrunken log2 fold change: 0.456

RRIRERPPRLPRPRPRPRSTPRP
shrunken log2 fold change: -0.259

RRIRERPPRLPRPRPRPDPIPRP
shrunken log2 fold change: -0.224

RRIRPRPPRLPRPRPRPGSKPRP
shrunken log2 fold change: -0.0791

RRIRCRPPRLPRPRPRPGAFPRP
shrunken log2 fold change: 0.138

RRIRLRPPRLPRPRPRPSCFPRP
shrunken log2 fold change: 0.172

From the supplement of paper PMC9112550, “Optimization of the antimicrobial peptide Bac7 by deep mutational scanning” (BMC Biology, 2022)
